Test results as given in patent US20170097353A1 (University of California, published 2017).
Ends that are not written are not given here. * marks the point of attachment. Butanoyl(4-N3) = [N-]=[N+]=NCCCC(=O)*

molecular target: T1, Prostate Specific Membrane Antigen (PSMA) on the surface of LNCaP / LNCaP CSS prostate cancer cells (human, UniProt Q04609 1-750, glycoprotein); assay: cell-based phage ELISA on LNCaP cells (FIG. 5A)
T1 construct: whole, on cells; Endogenous PSMA on LNCaP cells (derived from lymph node adenocarcinoma of the human prostate); Cells were glutaraldehyde-fixed on Maxisorp plates in the cell-based phage ELISA, or in suspension in the sandwich ELISA; also called cell surface PSMA
T1 sequence (Q04609 whole entry): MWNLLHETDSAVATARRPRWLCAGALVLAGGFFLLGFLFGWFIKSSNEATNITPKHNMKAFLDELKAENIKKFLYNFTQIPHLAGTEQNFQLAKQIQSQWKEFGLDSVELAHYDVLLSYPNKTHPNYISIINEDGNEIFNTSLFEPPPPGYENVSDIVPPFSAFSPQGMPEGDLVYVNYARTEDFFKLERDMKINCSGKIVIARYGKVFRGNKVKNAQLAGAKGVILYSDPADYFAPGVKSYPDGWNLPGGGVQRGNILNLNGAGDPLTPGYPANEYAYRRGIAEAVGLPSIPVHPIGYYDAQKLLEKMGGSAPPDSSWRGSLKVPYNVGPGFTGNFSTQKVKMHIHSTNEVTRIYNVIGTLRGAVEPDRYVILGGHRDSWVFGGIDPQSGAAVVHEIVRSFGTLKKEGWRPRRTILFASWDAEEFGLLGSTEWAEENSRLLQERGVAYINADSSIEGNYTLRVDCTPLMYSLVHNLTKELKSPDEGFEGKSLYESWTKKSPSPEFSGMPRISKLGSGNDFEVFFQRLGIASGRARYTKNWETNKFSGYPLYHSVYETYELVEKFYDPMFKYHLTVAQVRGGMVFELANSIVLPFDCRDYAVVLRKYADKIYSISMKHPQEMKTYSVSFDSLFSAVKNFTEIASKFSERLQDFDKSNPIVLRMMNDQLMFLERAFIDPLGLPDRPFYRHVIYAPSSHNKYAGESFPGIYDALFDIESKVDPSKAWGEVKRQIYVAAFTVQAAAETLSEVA

Row | Binder | binding result
1 | {pentynoic acid-15‑azido‑4,7,10,13‑tetraoxapentadecanoic acid}-SECVEVFQNSCDW-NH2 (not fully specified; cysteine pairing not given here; also: pentynoic acid clicked to azide (triazole), Mal-PEG100-NH2 HBTU-coupled non-specifically, Multivalent display on M13 phage wrapped with K14-Cys) | binds
2 | {Mal‑PEG100‑alkyne (triazole)-PEG4 linker}-SECVEVFQNSCDW-NH2 (not fully specified; cysteine pairing not given here, Multivalent display on M13 phage wrapped with K14-Cys) | binds
3 | SECVEVFQNSCDW-NH2 (not fully specified (N-terminus); cysteine pairing not given here; also: Mal-PEG100-alkyne clicked (triazole) to azide at N-terminus, Multivalent display on M13 phage wrapped with K14-Cys) | binds
4 | {pentynoic acid-Butanoyl(4-N3)}-SECVEVFQNSCDW-NH2 (not fully specified; cysteine pairing not given here; also: Mal-PEG100 coupled non-specifically (N-terminal or side-chain carboxylate), Multivalent display on M13 phage wrapped with K14-Cys; also called PEGylated ligand 2; peptide-2) | binds
